Key:
Experiment in all cases: two-hybrid library CCNG1;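 also: natural log of median RNA to DNA barcode read ratio; higher means stronger binding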
4H2438-bA = biological target: T1, 4H2438-bA
T1 chain: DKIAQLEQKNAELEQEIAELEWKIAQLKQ

4H3364-bA = biological target: T2, 4H3364-bA
T2 chain: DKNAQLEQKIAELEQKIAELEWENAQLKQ

4H2233-bA = biological target: T3, 4H2233-bA
T3 chain: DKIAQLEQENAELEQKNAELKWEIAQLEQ

4H56-bA = biological target: T4, 4H56-bA
T4 chain: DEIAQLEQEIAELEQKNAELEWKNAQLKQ

P1A-bH = biological target: T5, P1A-bH
T5 chain: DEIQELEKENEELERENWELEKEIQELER

4H2760-bA = biological target: T6, 4H2760-bA
T6 chain: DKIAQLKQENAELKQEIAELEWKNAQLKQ

4H883-bH = biological target: T7, 4H883-bH
T7 chain: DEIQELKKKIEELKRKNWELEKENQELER

4H492-bA = biological target: T8, 4H492-bA
T8 chain: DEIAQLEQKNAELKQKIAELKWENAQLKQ

4H348-bA = biological target: T9, 4H348-bA
T9 chain: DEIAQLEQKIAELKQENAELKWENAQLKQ

4H2444-bA = biological target: T10, 4H2444-bA
T10 chain: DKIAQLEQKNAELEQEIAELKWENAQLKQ

4H2859-bA = biological target: T11, 4H2859-bA
T11 chain: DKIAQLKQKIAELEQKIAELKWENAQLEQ

4H3381-bA = biological target: T12, 4H3381-bA
T12 chain: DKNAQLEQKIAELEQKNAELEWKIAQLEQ

4H2503-bA = biological target: T13, 4H2503-bA
T13 chain: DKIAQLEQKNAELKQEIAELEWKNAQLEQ

4H2839-bA = biological target: T14, 4H2839-bA
T14 chain: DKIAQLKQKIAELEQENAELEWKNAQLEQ

4H477-bA = biological target: T15, 4H477-bA
T15 chain: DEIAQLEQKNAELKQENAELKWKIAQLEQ

4H2143-bA = biological target: T16, 4H2143-bA
T16 chain: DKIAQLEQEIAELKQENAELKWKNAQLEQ

4H264-bA = biological target: T17, 4H264-bA
T17 chain: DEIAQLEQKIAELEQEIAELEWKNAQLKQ

4H235-bA = biological target: T18, 4H235-bA
T18 chain: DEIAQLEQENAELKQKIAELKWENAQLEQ

4H3041-bA = biological target: T19, 4H3041-bA
T19 chain: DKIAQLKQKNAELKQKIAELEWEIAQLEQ

4H3057-bA = biological target: T20, 4H3057-bA
T20 chain: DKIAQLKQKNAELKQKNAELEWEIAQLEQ

4H3277-bA = biological target: T21, 4H3277-bA
T21 chain: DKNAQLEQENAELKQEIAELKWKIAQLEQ

4H932-bA = biological target: T22, 4H932-bA
T22 chain: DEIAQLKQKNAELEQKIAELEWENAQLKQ

4H319-bA = biological target: T23, 4H319-bA
T23 chain: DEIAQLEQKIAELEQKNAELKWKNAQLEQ

4H349-bA = biological target: T24, 4H349-bA
T24 chain: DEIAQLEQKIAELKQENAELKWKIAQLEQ

4H3297-bA = biological target: T25, 4H3297-bA
T25 chain: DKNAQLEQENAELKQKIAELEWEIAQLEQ

O3-bA = biological target: T26, O3-bA
T26 chain: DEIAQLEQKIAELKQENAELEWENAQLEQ

4H741-bA = biological target: T27, 4H741-bA
T27 chain: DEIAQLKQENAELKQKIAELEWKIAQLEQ

4H2162-bA = biological target: T28, 4H2162-bA
T28 chain: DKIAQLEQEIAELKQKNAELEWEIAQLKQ

4H796-bA = biological target: T29, 4H796-bA
T29 chain: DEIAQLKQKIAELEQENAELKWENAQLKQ

4H2223-bA = biological target: T30, 4H2223-bA
T30 chain: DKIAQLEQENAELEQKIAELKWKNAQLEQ

4H2717-bA = biological target: T31, 4H2717-bA
T31 chain: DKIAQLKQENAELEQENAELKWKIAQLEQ

4H949-bA = biological target: T32, 4H949-bA
T32 chain: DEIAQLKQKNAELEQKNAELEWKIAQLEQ

4H2588-bA = biological target: T33, 4H2588-bA
T33 chain: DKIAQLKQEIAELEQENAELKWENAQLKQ

4H40-bA = biological target: T34, 4H40-bA
T34 chain: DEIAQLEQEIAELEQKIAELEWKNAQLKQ

4H2473-bA = biological target: T35, 4H2473-bA
T35 chain: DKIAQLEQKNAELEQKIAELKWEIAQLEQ

4H2915-bA = biological target: T36, 4H2915-bA
T36 chain: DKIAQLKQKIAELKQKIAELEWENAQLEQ

4H730-bA = biological target: T37, 4H730-bA
T37 chain: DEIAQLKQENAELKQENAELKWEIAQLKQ

4H2692-bA = biological target: T38, 4H2692-bA
T38 chain: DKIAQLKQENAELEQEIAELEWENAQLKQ

4H2253-bA = biological target: T39, 4H2253-bA
T39 chain: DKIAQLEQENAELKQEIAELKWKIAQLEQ

4H2518-bA = biological target: T40, 4H2518-bA
T40 chain: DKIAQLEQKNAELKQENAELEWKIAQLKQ

4H2931-bA = biological target: T41, 4H2931-bA
T41 chain: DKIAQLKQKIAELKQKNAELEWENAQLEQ

4H2585-bA = biological target: T42, 4H2585-bA
T42 chain: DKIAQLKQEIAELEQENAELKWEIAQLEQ

DKIAQLEQEIAELKQENAELKWKNAQLEQ [4H2143-bA]
interaction score (4H2438-bA): -0.866 | interaction score (4H3364-bA): -0.25 | interaction score (4H2233-bA): -0.508 | interaction score (4H56-bA): -0.735 | interaction score (P1A-bH): -0.594 | interaction score (4H2760-bA): -0.549 | interaction score (4H883-bH): -0.0863 | interaction score (4H492-bA): -0.554 | interaction score (4H348-bA): -2.35 | interaction score (4H2444-bA): -0.654 | interaction score (4H2859-bA): 0.213 | interaction score (4H3381-bA): -0.302 | interaction score (4H2503-bA): -0.661 | interaction score (4H2839-bA): 0.951 | interaction score (4H477-bA): -1.41 | interaction score (4H2143-bA): 0.408 | interaction score (4H264-bA): -1.37 | interaction score (4H235-bA): -1.89 | interaction score (4H3041-bA): 0.0855 | interaction score (4H3057-bA): -0.0999 | interaction score (4H3277-bA): -0.971 | interaction score (4H932-bA): -0.976 | interaction score (4H319-bA): -1.13 | interaction score (4H349-bA): -0.729 | interaction score (4H3297-bA): -0.562 | interaction score (O3-bA): 0.533 | interaction score (4H741-bA): -1.07 | interaction score (4H2162-bA): -0.188 | interaction score (4H796-bA): -0.0583 | interaction score (4H2223-bA): -0.911 | interaction score (4H2717-bA): 0.447 | interaction score (4H949-bA): -0.273 | interaction score (4H2588-bA): 0.968 | interaction score (4H40-bA): -1.53 | interaction score (4H2473-bA): -0.712 | interaction score (4H2915-bA): 0.145 | interaction score (4H730-bA): -0.518 | interaction score (4H2692-bA): -0.33 | interaction score (4H2253-bA): -0.521 | interaction score (4H2518-bA): -0.404 | interaction score (4H2931-bA): 0.604 | interaction score (4H2585-bA): 0.499

Source: publication PMC10397247
